# Numbering of substitutions follows the chain as printed.
# B1: matuzumab HC_20.8.34_B + matuzumab LC (IgG1) (protein)
# chain 1: QVQLVQSGAEVKKPGASVKVSCKASGYTFTSHWMHWVRYAPGQGLEWIGEFNPSNGRTNYNEKFKSKATMTVDTSTNTAYMELSSLRSEDTAVYYCASRDYDYDGRYFDYWGRGTLVTVSSASTKGPSVFPLAPCSKSTSGGTAALGCLVKDYFPEPVTVSWNSGALTSGVHTFPAVLQSSGLYSLSSVVTVPSSSLGTQTYICNVNHKPSNTKVDKKVEPDSGDKTHTCPPCPAPELLGGPSVFLFPPKPKDTLMISRTPEVTCVVVDVSHEDPEVKFNWYVDGVEVHNAKTKPREEQYNSTYRVVSVLTVLHQDWLNGKEYKCKVSNKALPAPIEKTISKAKGQPREPQVYTLPPSRGDMTKNQVQLTCLVKGFYPSDIAVEWESNGQPENNYKTTPPVLDSDGSFFLASKLTVDKSRWQQGNVFSCSVMHEALHNHYTQKSLSLSPGK
# chain 2: DIQMTQSPSSLSASVGDRVTITCSASSSVTYMYWYQRKPGDAPKLLIYDTSNLASGVPSRFSGSGSGTDYTFTISSLQPEDIATYYCQQWSSHIFTFGQGTKVEIKRTVAAPSVFIFPPSKEQLKSGTASVVCLLNNFYPREAKVQWKVDNALQSGNSQESVTEQDSKDSTYSLSSTLTLSKADYEKHKVYACEVTHQGLSSPVTKSFNRGEC
# B2: matuzumab HC_20.8.37_B + matuzumab LC (IgG1) (protein)
# chain 1: B1 chain 1 with G360E, Q368R
# chain 2: B1 chain 2
# B3: matuzumab HC_20.8.34_B + matuzumab LC (IgG4 HC backbone) (protein)
# chain 1: QVQLVQSGAEVKKPGASVKVSCKASGYTFTSHWMHWVRYAPGQGLEWIGEFNPSNGRTNYNEKFKSKATMTVDTSTNTAYMELSSLRSEDTAVYYCASRDYDYDGRYFDYWGRGTLVTVSSASTKGPSVFPLAPCSRSTSESTAALGCLVKDYFPEPVTVSWNSGALTSGVHTFPAVLQSSGLYSLSSVVTVPSSSLGTKTYTCNVDHKPSNTKVDKRVESDYGPPCPPCPAPEAAGGPSVFLFPPKPKDTLMISRTPEVTCVVVDVSQEDPEVQFNWYVDGVEVHNAKTKPREEQFQSTYRVVSVLTVLHQDWLNGKEYKCKVSNKGLPSSIEKTISKAKGQPREPQVYTLPPSQGDMTKNQVQLTCLVKGFYPSDIAVEWESNGQPENNYKTTPPVLDSDGSFFLASRLTVDKSRWQEGNVFSCSVMHEALHNHYTQKSLSLSLG
# chain 2: B1 chain 2
# B4: matuzumab HC_7.8.60_B + matuzumab LC (IgG1) (protein)
# chain 1: B1 chain 1 with E349R, Q351R, G360E, D361E, Q368S, T370V, A411Y, K413V
# chain 2: B1 chain 2
# B5: matuzumab HC_7.8.60_B + matuzumab LC (IgG4 HC backbone) (protein)
# chain 1: B3 chain 1 with E346R, Q348R, G357E, D358E, Q365S, T367V, A408Y, R410V
# chain 2: B1 chain 2
# B6: BHA10 HC_7.8.60_B + BHA10 LC (IgG4 HC backbone) (protein)
# chain 1: QVQLVQSGAEVKKPGSSVKVSCKASGYTFTTYYLHWVRYAPGQGLEWMGWIYPGNVHAQYNEKFKGRVTITADKSTSTAYMELSSLRSEDTAVYYCARSWEGFPYWGRGTTVTVSSASTKGPSVFPLAPCSRSTSESTAALGCLVKDYFPEPVTVSWNSGALTSGVHTFPAVLQSSGLYSLSSVVTVPSSSLGTKTYTCNVDHKPSNTKVDKRVESDYGPPCPPCPAPEAAGGPSVFLFPPKPKDTLMISRTPEVTCVVVDVSQEDPEVQFNWYVDGVEVHNAKTKPREEQFQSTYRVVSVLTVLHQDWLNGKEYKCKVSNKGLPSSIEKTISKAKGQPRRPRVYTLPPSQEEMTKNQVSLVCLVKGFYPSDIAVEWESNGQPENNYKTTPPVLDSDGSFFLYSVLTVDKSRWQEGNVFSCSVMHEALHNHYTQKSLSLSLG
# chain 2: DIQMTQSPSSLSASVGDRVTITCKASQNVGINVAWYQRKPGDAPKSLISSASYRYSGVPSRFSGSGSGTDFTLTISSLQPEDFATYFCQQYDTYPFTFGQGTKVEIKRTVAAPSVFIFPPSKEQLKSGTASVVCLLNNFYPREAKVQWKVDNALQSGNSQESVTEQDSKDSTYSLSSTLTLSKADYEKHKVYACEVTHQGLSSPVTKSFNRGEC
# B7: BHA10 HC_20.8.34_B + BHA10 LC (IgG1) (protein)
# chain 1: QVQLVQSGAEVKKPGSSVKVSCKASGYTFTTYYLHWVRYAPGQGLEWMGWIYPGNVHAQYNEKFKGRVTITADKSTSTAYMELSSLRSEDTAVYYCARSWEGFPYWGRGTTVTVSSASTKGPSVFPLAPCSKSTSGGTAALGCLVKDYFPEPVTVSWNSGALTSGVHTFPAVLQSSGLYSLSSVVTVPSSSLGTQTYICNVNHKPSNTKVDKKVEPDSGDKTHTCPPCPAPELLGGPSVFLFPPKPKDTLMISRTPEVTCVVVDVSHEDPEVKFNWYVDGVEVHNAKTKPREEQYNSTYRVVSVLTVLHQDWLNGKEYKCKVSNKALPAPIEKTISKAKGQPREPQVYTLPPSRGDMTKNQVQLTCLVKGFYPSDIAVEWESNGQPENNYKTTPPVLDSDGSFFLASKLTVDKSRWQQGNVFSCSVMHEALHNHYTQKSLSLSPGK
# chain 2: B6 chain 2
# B8: BHA10 HC_7.8.60_B + BHA10 LC (IgG1) (protein)
# chain 1: B7 chain 1 with E344R, Q346R, G355E, D356E, Q363S, T365V, A406Y, K408V
# chain 2: B6 chain 2
# B9: BHA10 HC_20.8_B + BHA10 LC (IgG1) (protein)
# chain 1: B7 chain 1 with G355E
# chain 2: B6 chain 2
# B10: BHA10 HC_20.8.37_B + BHA10 LC (IgG1) (protein)
# chain 1: B7 chain 1 with G355E, Q363R
# chain 2: B6 chain 2
# B11: BHA10 HC_20.8.34_B + BHA10 LC (IgG4 HC backbone) (protein)
# chain 1: B6 chain 1 with R341E, R343Q, E352G, E353D, S360Q, V362T, Y403A, V405R
# chain 2: B6 chain 2
# Legend:
# [1] = LCMS, IgG1 BsAb co-expression; HCB homodimer species
# [2] = LCMS, IgG4 BsAb co-expression; HCB homodimer species
# [3] = pertuzumab × matuzumab bispecific
protein,measurement,setting,value
B1,% BB Homodimer (incorrect assembly),[1]; MetMAb × matuzumab bispecific,0%
same,% BB Homodimer (incorrect assembly),[1]; [3],1.6%
B2,% BB Homodimer (incorrect assembly),[1]; MetMAb × matuzumab bispecific,0%
same,% BB Homodimer (incorrect assembly),[1]; [3],0.5%
B3,% BB Homodimer (incorrect assembly),[2]; MetMAb × Matuzumab IgG BsAbs (with select CH3 Designs),0%
same,% BB Homodimer (incorrect assembly),[2]; Pertuzumab × Matuzumab IgG BsAbs (with select CH3 Designs),3.6%
B4,% BB Homodimer (incorrect assembly),[1],1.3%
B5,% BB Homodimer (incorrect assembly),[2],0%
B6,% BB Homodimer (incorrect assembly),[2],4.2%
B7,% BB Homodimer (incorrect assembly),[1],0%
B8,% BB Homodimer (incorrect assembly),[1],1.6%
B9,% BB Homodimer (incorrect assembly),[1],0%
B10,% BB Homodimer (incorrect assembly),[1],0%
B11,% BB Homodimer (incorrect assembly),[2],0%

# — US20180009908
